Here are results for three proteins from PMC10947486.

Changes are numbered by the printed parent chain. Names may count otherwise.

Substrate in this data set: O=C(O)CCC(=O)C(=O)O
The data set is described as follows: purified protein. Particulars: Fe(II) active site Fe(II).

A word on the Km: it is the concentration of substrate that gives half-maximal velocity. The term kcat denotes the maximal rate divided by the concentration of active sites. In general, kcat/Km refers to the second-order rate constant that governs catalysis at low substrate concentration.

B1: Aspartate/asparagine-β-hydroxylase (AspH) (Homo sapiens; H679A) (protein)
chain: RKTDDPEQKAKVKKKKPKLLNKFDKTIKAELDAAEKLRKRGKIEEAVNAFKELVRKYPQSPRARYGKAQCEDDLAEKRRSNEVLRGAIETYQEVASLPDVPADLLKLSLKRRSDRQQFLGHMRGSLLTLQRLVQLFPNDTSLKNDLGVGYLLIGDNDNAKKVYEEVLSVTPNDGFAKVHYGFILKAQNKIAESIPYLKEGIESGDPGTDDGRFYFHLGDAMQRVGNKEAYKWYELGHKRGHFASVWQRSLYNVNGLKAQPWWTPKETGYTELVKSLERNWKLIRDEGLAVMDKAKGLFLPEDENLREKGDWSQFTLWQQGRRNENACKGAPKTCTLLEKFPETTGCRRGQIKYSIMHPGTHVWPATGPTNCRLRMHLGLVIPKEGCKIRCANETKTWEEGKVLIFDDSFEHEVWQDASSFRLIFIVDVWHPELTPQQRRSLPAI
Consider B1, for which the Km was found to be 109 ± 20 µM, the kcat was 0.18 s⁻¹ and the catalytic efficiency (kcat/Km) was 1700 M⁻¹ s⁻¹.

B2: Aspartate/asparagine-β-hydroxylase (AspH) (Homo sapiens; H725A) (protein)
chain: B1 chain with A365H, H411A
As for B2, the Km worked out at 211 ± 65 µM, the kcat worked out at 0.08 s⁻¹ and the specificity constant (kcat/Km) was found to be 380 M⁻¹ s⁻¹.

B3: Aspartate/asparagine-β-hydroxylase (AspH) (Homo sapiens) (protein)
chain: B1 chain with A365H
Turning to B3, the Km was found to be 1.1 ± 0.4 µM, the kcat turned out to be 0.31 s⁻¹ and the kcat/Km stood at 282000 M⁻¹ s⁻¹.
